From article PMC9123601 (Archives of biochemistry and biophysics, 2015)
Like-named read-outs stand apart in the source and are kept apart here.

B1: Human Prx2, native, reduced (thiol cysteines) (enzyme, UniProt P32119 1-198, looked up)
chain: MASGNARIGKPAPDFKATAVVDGAFKEVKLSDYKGKYVVLFFYPLDFTFVCPTEIIAFSNRAEDFRKLGCEVLGVSVDSQFTHLAWINTPRKEGGLGPLNIPLLADVTRRLSEDYGVLKTDEGIAYRGLFIIDGKGVLRQITVNDLPVGRSVDEALRLVQAFQYTDEHGEVCPAGWKPGSDTIKPNVDDSKEYFSKHN
modifications: cysteines reduced (thiol)
B2: Human Prx2, overoxidized (enzyme, UniProt P32119 1-198, looked up)
chain: B1 chain
modifications: overoxidized (so in the source)

Tests used:
SEC [1] = biological target: the molecule itself; experiment: SEC
SEC [2] = biological target: the molecule itself; experiment: SEC; remark: listed apart in the source

Protein	stoichiometry N (SEC [1])	stoichiometry N (SEC [2])
B1	10	
B2		10
